B1: Fluoroacetate dehalogenase (FAcD) wild type (enzyme, Rhodopseudomonas palustris, UniProt Q6NAM1 1-302, looked up)
chain: MPDLADLFPGFGSEWINTSSGRIFARVGGDGPPLLLLHGFPQTHVMWHRVAPKLAERFKVIVADLPGYGWSDMPESDEQHTPYTKRAMAKQLIEAMEQLGHVHFALAGHDRGARVSYRLALDSPGRLSKLAVLDILPTYEYWQRMNRAYALKIYHWSFLAQPAPLPENLLGGDPDFYVKAKLASWTRAGDLSAFDPRAVEHYRIAFADPMRRHVMCEDYRAGAYADFEHDKIDVEAGNKIPVPMLALWGASGIAQSAATPLDVWRKWASDVQGAPIESGHFLPEEAPDQTAEALVRFFSAAP
B2: Fluoroacetate dehalogenase (FAcD) Ser157Thr (enzyme, Rhodopseudomonas palustris, UniProt Q6NAM1 1-302, looked up)
chain: MPDLADLFPGFGSEWINTSSGRIFARVGGDGPPLLLLHGFPQTHVMWHRVAPKLAERFKVIVADLPGYGWSDMPESDEQHTPYTKRAMAKQLIEAMEQLGHVHFALAGHDRGARVSYRLALDSPGRLSKLAVLDILPTYEYWQRMNRAYALKIYHWTFLAQPAPLPENLLGGDPDFYVKAKLASWTRAGDLSAFDPRAVEHYRIAFADPMRRHVMCEDYRAGAYADFEHDKIDVEAGNKIPVPMLALWGASGIAQSAATPLDVWRKWASDVQGAPIESGHFLPEEAPDQTAEALVRFFSAAP
B3: Fluoroacetate dehalogenase (FAcD) Ser157Ala (enzyme, Rhodopseudomonas palustris, UniProt Q6NAM1 1-302, looked up)
chain: MPDLADLFPGFGSEWINTSSGRIFARVGGDGPPLLLLHGFPQTHVMWHRVAPKLAERFKVIVADLPGYGWSDMPESDEQHTPYTKRAMAKQLIEAMEQLGHVHFALAGHDRGARVSYRLALDSPGRLSKLAVLDILPTYEYWQRMNRAYALKIYHWAFLAQPAPLPENLLGGDPDFYVKAKLASWTRAGDLSAFDPRAVEHYRIAFADPMRRHVMCEDYRAGAYADFEHDKIDVEAGNKIPVPMLALWGASGIAQSAATPLDVWRKWASDVQGAPIESGHFLPEEAPDQTAEALVRFFSAAP

Target: the molecule itself
Assay: crystal structure
B1: binds.
B2: binds.
B3: binds.

Reference: paper doi:10.1101/2025.04.29.650001 (bioRxiv, 2025)
